Data published in PMC3034952 (Enzyme Research, 2011).

T1: Arabidopsis thaliana pyruvate dehydrogenase-kinase (AtPDK), wild type, bacterial two-hybrid fusion in pBT (Arabidopsis thaliana, UniProt Q9SBJ1 1-366)
T1 sequence (looked up): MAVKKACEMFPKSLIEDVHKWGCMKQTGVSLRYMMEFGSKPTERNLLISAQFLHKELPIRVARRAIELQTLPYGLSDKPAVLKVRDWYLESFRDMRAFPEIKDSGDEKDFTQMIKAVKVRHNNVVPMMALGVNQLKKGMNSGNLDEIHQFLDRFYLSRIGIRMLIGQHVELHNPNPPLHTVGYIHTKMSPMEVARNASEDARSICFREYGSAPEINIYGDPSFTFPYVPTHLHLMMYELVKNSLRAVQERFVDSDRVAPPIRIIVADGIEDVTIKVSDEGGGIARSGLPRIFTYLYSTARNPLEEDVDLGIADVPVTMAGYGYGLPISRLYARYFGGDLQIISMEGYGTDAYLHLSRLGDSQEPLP


How the values were obtained:
[1] = substrate: CC(=O)C(=O)O; assay: purified protein; assay type: biochemical, Arabidopsis thaliana; conditions: 1.8 μM K3Fe(CN)6 as electron acceptor, 30°C, labelled compound
[2] = biological target: T1, Arabidopsis thaliana pyruvate …; assay: two-hybrid; bacterial two-hybrid (BacterioMatch I, Stratagene): AtPDK in pBT, E1α constructs in pTRG, cotransformed into the E. coli reporter strain; quantified by β-galactosidase activity with o-nitrophenyl-β-D-galactoside; conditions: partners not purified

β-galactosidase reporter activity (100% of WT) [2] [μmol min^−1 1.0 A600^−1]	Binder	Km [1] [µM]	kcat [1] [s⁻¹]	kcat/Km [1] [M⁻¹ s⁻¹]
–	AtPDC E1 (AtE1; recombinant alpha2beta2 pyruvate dehydrogenase) (Arabidopsis thaliana) (protein, co-expressed in E. coli with GroE; alpha2beta2 heterotetramer, Mr 160,000) chain 1: SAAFSRLISTDTTPITIETSLPFTAHLCDPPSRSVESSSQELLDFFRTMALMRRMEIAADSLYKAKLIRGFCHLYDGQEAVAIGMEAAITKKDAIITAYRDHCIFLGRGGSLHEVFSELMGRQAGCSKGKGGSMHFYKKESSFYGGHGIVGAQVPLGCGIAFAQKYNKEEAVTFALYGDGAANQGQLFEALNISALWDLPAILVCENNHYGMGTAEWRAAKSPSYYKRGDYVPGLKVDGMDAFAVKQACKFAKQHALEKGPIILEMDTYRYHGHSMSDPGSTYRTRDEISGVRQERDPIERIKKLVLSHDLATEKELKDMEKEIRKEVDDAIAKAKDCPMPEPSELFTNVYVKGFGTESFGPDRKEVKASLP chain 2: AAGAKEMTVRDALNSAIDEEMSADPKVFVMGEEVGQYQGAYKITKGLLEKYGPERVYDTPITEAGFTGIGVGAAYAGLKPVVEFMTFNFSMQAIDHIINSAAKSNYMSAGQINVPIVFRGPNGAAAGVGAQHSQCYAAWYASVPGLKVLAPYSAEDARGLLKAAIRDPDPVVFLENELLYGESFPISEEALDSSFCLPIGKAKIEREGKDVTIVTFSKMVGFALKAAEKLAEEGISAEVINLRSIRPLDRATINASVRKTSRLVTVEEGFPQHGVCAEICASVVEESFSYLDAPVERIAGADVPMPYAANLERLALPQIEDIVRASKRACYRSK	45 ± 18	159 ± 14	3.5e+06
–	AtPDC E1 (AtE1; recombinant alpha2beta2 pyruvate dehydrogenase) (Arabidopsis thaliana; P52901:D295N) (protein, co-expressed in E. coli with GroE; alpha2beta2 heterotetramer, Mr 160,000) chain 1: SAAFSRLISTDTTPITIETSLPFTAHLCDPPSRSVESSSQELLDFFRTMALMRRMEIAADSLYKAKLIRGFCHLYDGQEAVAIGMEAAITKKDAIITAYRDHCIFLGRGGSLHEVFSELMGRQAGCSKGKGGSMHFYKKESSFYGGHGIVGAQVPLGCGIAFAQKYNKEEAVTFALYGDGAANQGQLFEALNISALWDLPAILVCENNHYGMGTAEWRAAKSPSYYKRGDYVPGLKVDGMDAFAVKQACKFAKQHALEKGPIILEMDTYRYHGHSMSNPGSTYRTRDEISGVRQERDPIERIKKLVLSHDLATEKELKDMEKEIRKEVDDAIAKAKDCPMPEPSELFTNVYVKGFGTESFGPDRKEVKASLP chain 2: AAGAKEMTVRDALNSAIDEEMSADPKVFVMGEEVGQYQGAYKITKGLLEKYGPERVYDTPITEAGFTGIGVGAAYAGLKPVVEFMTFNFSMQAIDHIINSAAKSNYMSAGQINVPIVFRGPNGAAAGVGAQHSQCYAAWYASVPGLKVLAPYSAEDARGLLKAAIRDPDPVVFLENELLYGESFPISEEALDSSFCLPIGKAKIEREGKDVTIVTFSKMVGFALKAAEKLAEEGISAEVINLRSIRPLDRATINASVRKTSRLVTVEEGFPQHGVCAEICASVVEESFSYLDAPVERIAGADVPMPYAANLERLALPQIEDIVRASKRACYRSK	257 ± 144	38 ± 10	100000
–	AtPDC E1 (AtE1; recombinant alpha2beta2 pyruvate dehydrogenase) (Arabidopsis thaliana; P52901:G297D) (protein, co-expressed in E. coli with GroE; alpha2beta2 heterotetramer, Mr 160,000) chain 1: SAAFSRLISTDTTPITIETSLPFTAHLCDPPSRSVESSSQELLDFFRTMALMRRMEIAADSLYKAKLIRGFCHLYDGQEAVAIGMEAAITKKDAIITAYRDHCIFLGRGGSLHEVFSELMGRQAGCSKGKGGSMHFYKKESSFYGGHGIVGAQVPLGCGIAFAQKYNKEEAVTFALYGDGAANQGQLFEALNISALWDLPAILVCENNHYGMGTAEWRAAKSPSYYKRGDYVPGLKVDGMDAFAVKQACKFAKQHALEKGPIILEMDTYRYHGHSMSDPDSTYRTRDEISGVRQERDPIERIKKLVLSHDLATEKELKDMEKEIRKEVDDAIAKAKDCPMPEPSELFTNVYVKGFGTESFGPDRKEVKASLP chain 2: AAGAKEMTVRDALNSAIDEEMSADPKVFVMGEEVGQYQGAYKITKGLLEKYGPERVYDTPITEAGFTGIGVGAAYAGLKPVVEFMTFNFSMQAIDHIINSAAKSNYMSAGQINVPIVFRGPNGAAAGVGAQHSQCYAAWYASVPGLKVLAPYSAEDARGLLKAAIRDPDPVVFLENELLYGESFPISEEALDSSFCLPIGKAKIEREGKDVTIVTFSKMVGFALKAAEKLAEEGISAEVINLRSIRPLDRATINASVRKTSRLVTVEEGFPQHGVCAEICASVVEESFSYLDAPVERIAGADVPMPYAANLERLALPQIEDIVRASKRACYRSK	66 ± 24	70 ± 7	1e+06
–	AtPDC E1 (AtE1; recombinant alpha2beta2 pyruvate dehydrogenase) (Arabidopsis thaliana; P52901:D295A) (protein, co-expressed in E. coli with GroE; alpha2beta2 heterotetramer, Mr 160,000) chain 1: SAAFSRLISTDTTPITIETSLPFTAHLCDPPSRSVESSSQELLDFFRTMALMRRMEIAADSLYKAKLIRGFCHLYDGQEAVAIGMEAAITKKDAIITAYRDHCIFLGRGGSLHEVFSELMGRQAGCSKGKGGSMHFYKKESSFYGGHGIVGAQVPLGCGIAFAQKYNKEEAVTFALYGDGAANQGQLFEALNISALWDLPAILVCENNHYGMGTAEWRAAKSPSYYKRGDYVPGLKVDGMDAFAVKQACKFAKQHALEKGPIILEMDTYRYHGHSMSAPGSTYRTRDEISGVRQERDPIERIKKLVLSHDLATEKELKDMEKEIRKEVDDAIAKAKDCPMPEPSELFTNVYVKGFGTESFGPDRKEVKASLP chain 2: AAGAKEMTVRDALNSAIDEEMSADPKVFVMGEEVGQYQGAYKITKGLLEKYGPERVYDTPITEAGFTGIGVGAAYAGLKPVVEFMTFNFSMQAIDHIINSAAKSNYMSAGQINVPIVFRGPNGAAAGVGAQHSQCYAAWYASVPGLKVLAPYSAEDARGLLKAAIRDPDPVVFLENELLYGESFPISEEALDSSFCLPIGKAKIEREGKDVTIVTFSKMVGFALKAAEKLAEEGISAEVINLRSIRPLDRATINASVRKTSRLVTVEEGFPQHGVCAEICASVVEESFSYLDAPVERIAGADVPMPYAANLERLALPQIEDIVRASKRACYRSK	178 ± 108	52 ± 12	300000
3	AtPDC E1α, wild type, bacterial two-hybrid fusion in pTRG (enzyme, Arabidopsis thaliana, UniProt P52901 1-389, looked up) MALSRLSSRSNIITRPFSAAFSRLISTDTTPITIETSLPFTAHLCDPPSRSVESSSQELLDFFRTMALMRRMEIAADSLYKAKLIRGFCHLYDGQEAVAIGMEAAITKKDAIITAYRDHCIFLGRGGSLHEVFSELMGRQAGCSKGKGGSMHFYKKESSFYGGHGIVGAQVPLGCGIAFAQKYNKEEAVTFALYGDGAANQGQLFEALNISALWDLPAILVCENNHYGMGTAEWRAAKSPSYYKRGDYVPGLKVDGMDAFAVKQACKFAKQHALEKGPIILEMDTYRYHGHSMSDPGSTYRTRDEISGVRQERDPIERIKKLVLSHDLATEKELKDMEKEIRKEVDDAIAKAKDCPMPEPSELFTNVYVKGFGTESFGPDRKEVKASLP	–	–	–
